In publication doi:10.1101/291427:

Target: T1, CSEP0064/BEC1054 (Blumeria graminis) (UniProt N1JJ94)
T1 sequence: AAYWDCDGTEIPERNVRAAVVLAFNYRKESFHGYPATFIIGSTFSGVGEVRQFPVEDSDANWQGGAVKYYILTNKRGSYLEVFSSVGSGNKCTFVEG
Experiment: NMR

## SRL DNA oligonucleotide
  Kd: > 10 µM
